Experimental findings from article PMC5566378 are described below.

For the experiment, the target named is human IL-17RA extracellular domain (human), Q96F46. The experiment is described as follows: SPR. Conditions: ligand; chains chain; biotin on the Avi-tag (E. coli BirA), for the SPR measurements only; remark: other sources report otherwise. (SPR reads the build-up and loss of mass on a sensor chip optically.)

B1: human IL-17F homodimer, Q96PD4 31-163 (protein)
chain: RKIPKVGHTFFQKPESCPPVPGGSMKLDIGIINENQRVSMSRNIESRSTSPWNYTVTWDPNRYPSEVVQAQCRNLGCINAQGKEDISMNSVPIQQETLVVRRKHQGCSVSFQLEKVLVTVGCTCVTPVIHHVQ
Regarding B1, the Kd (as a rule, a measure of binding affinity in units of concentration) turned out to be 136 nM.
